Results from the nanobody polyreactivity screen of Harvey et al. (2022).

Test: yeast display, Sf9 membrane polyspecificity reagent, FACS + sequencing; frameworks hold sequencing errors
Method in brief: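 Polyreactivity labels are assigned by the sorting gate from which each nanobody was recovered. The gates were low and high (top ~1%), set on anti-HA fluorescence for expression and streptavidin fluorescence for reagent binding. Before sorting, galactose-induced (36–48 hours) yeast display cells were stained for 1 hour at 4 °C with 10% biotinylated, detergent-solubilized Sf9 membrane reagent.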

Question: With “QVQIVESGGGLVQAGGSLRLSCAASGRIFSQNTMGWYRQAPGKERELVAVISWRGGRTSYADSVKGRFTISRDNAQNTVYLQMNSLKPEDTAVYYCNAKRYAGSNYDYWGQGTQVTVSS” as the sequence, how does the “polyreactivity (PSR sort gate)” value read?
Answer: high polyreactivity

Question: With “QVQIVESGGGLVQAGGSLRLSCAASGRISEANAMGRYRQATWKERELVAAIDFSDGSTYYADSVKGRFTISRDNAKNTVYLQMNSLKPEDTAVYYCAADDQYYPYDYWGLGTQVTVSS” as the sequence, how does the “polyreactivity (PSR sort gate)” value read?
Answer: low polyreactivity

Question: Which “polyreactivity (PSR sort gate)” value does the source give for “QVQIVESGGGLVQAGGSLRLSCAASGRTFNQYAMGWYRQAPVKERELVAAISASGGNTYYADSVKGRFTISRDNAKNNVYVQMNSLKQEDTEVYYCADKQSSSRYYGNDYWGQGTQVTVSS” here?
Answer: high polyreactivity

Question: With “QVQIVESGGGLVQAGGSLRLSCAASGRTFRENAMGWYRQAPGKERELVAAAISSGDGTNYADSVKGRFTISRDYAKNTVYLQMNSLQPEDTAVYYCAADGPRDSYDYWGQGTQVTVSS” as the sequence, how does the “polyreactivity (PSR sort gate)” value read?
Answer: low polyreactivity

Question: Which “polyreactivity (PSR sort gate)” value does the source give for “QVQIVESGGGLVQAGGSLRLSCAASGRTFTAYAMGWYRQAPGKERELVAAITTSGGTTYYADSVKGRFTISRDNAKNTVYLQMKSLKPEDTAVYYCAADVVVSWWLIYDYWGQGTQVTVSS” here?
Answer: low polyreactivity

Question: With “QVQIVESGGGLVQAGGSLRLSCAASGRTVGYNPMGWYRQAPGKETELVAVIRSGGSTYYADSVKGRFTISRDNAQYSVYLQLHSLIPEDSEVYYCAATGLYNVTSPYSYKYDYWGQCTQVTVSS” as the sequence, how does the “polyreactivity (PSR sort gate)” value read?
Answer: low polyreactivity

Question: Which “polyreactivity (PSR sort gate)” value does the source give for “QVQIVESGGGLVQAGGSLRLSCAASGSICTHNDMGWYRPSTWKERELVAAISTSGGRTYDADSVKGSFTISRDTAKNTVYLPMNSLKPEDTAVYYCNDRSVRSRYDYWGQGTQVTVSS” here?
Answer: high polyreactivity

Question: Which “polyreactivity (PSR sort gate)” value does the source give for “QVQIVESGGGLVQAGGSLRLSCAASGSIFFYYSMGWYRQAPGKERELVAAISVGGSTYYADSVKGRFTISRDNAKNTVYLQMNSLKPEDTAVYSFNAVPAKGYVTVVRYYYWGQGTQVTVSS” here?
Answer: low polyreactivity

Question: Which “polyreactivity (PSR sort gate)” value does the source give for “QVQIVESGGGLVQAGGSLRLSCAASGSIFGVNAMGWYRQAPGKERELVASITGGDSTNYADSVKGRFTISRDNAKNTVYLQMNSLKPEDTAVYYCAKDHYYRYEEGDYWGQGTQVTVSS” here?
Answer: low polyreactivity

Question: With “QVQIVESGGGLVQAGGSLRLSCAASGSIFITYAMGWYRPAPGKERELVAAIRDSGDRTYYADSVKGRFTISRDNAKNTVYLQMNSLKPEDTAVYYCNARWQEPLKYDYWGQGTQVTVSS” as the sequence, how does the “polyreactivity (PSR sort gate)” value read?
Answer: low polyreactivity

Question: For “QVQIVESGGGLVQAGGSLRLSCAASGSIFKYYAMGSYRQAPVKERELVAAISSGGSTKYADSVKARFTISRDNEKNTVYLHMTRLIPEDTAVYYCAARDPSRHARRAYDYWGQGTQVTVSS”, which “polyreactivity (PSR sort gate)” value is on record?
Answer: low polyreactivity

Question: With “QVQIVESGGGLVQAGGSLRLSCAASGSIFRYYAMAWYRQETGKERELVARISSGVSTNYADSVKGRFTISRDNAKNSVYLQMNSLKPEDTAVYYCNARTGWTGRGRYSLRYDYWGQGTQVTVSS” as the sequence, how does the “polyreactivity (PSR sort gate)” value read?
Answer: high polyreactivity

Question: For “QVQIVESGGGLVQAGGSLRLSCAASGSIFSRYAMGWYRQAPGKERELVAAISGRGGGTYYADSVKGRFTISRDNAKNTVYLQMNSLKPEDTAVYYCAAQLGRPAYSRVSWRAYYYWGQGTQVTVSS”, which “polyreactivity (PSR sort gate)” value is on record?
Answer: low polyreactivity

Question: For “QVQIVESGGGLVQAGGSLRLSCAASGSIFSVYAMGWYRQAPGKERELVAAIRYGDTSTYYADSVKGRFTISRDNAKNTVYFQMNSLKPEDTAVYYCAADLYAYEREYWGQGTQVTVSS”, which “polyreactivity (PSR sort gate)” value is on record?
Answer: low polyreactivity

Question: Which “polyreactivity (PSR sort gate)” value does the source give for “QVQIVESGGGLVQAGGSLRLSCAASGSIFYRYAMGWYRQAPGKEREFVAAIDYSGSITRYADSVKGRFTISRDNAKNTVYLQMNSLKPEDTAVYYCAARSYAKDWGGYNYWGQGTQVTVSS” here?
Answer: high polyreactivity

Question: Which “polyreactivity (PSR sort gate)” value does the source give for “QVQIVESGGGLVQAGGSLRLSCAASGSILYEYAMGWYRQAPGKERELVAAISSGDSTNYADSVKGRFTISRDNAKNTVYLQMNSLNPEDTAVYDCNRDFPRERFTYKFDYWGQGTQVTVSS” here?
Answer: low polyreactivity

Question: For “QVQIVESGGGLVQAGGSLRLSCAASGSTFTRYTMGWYRQAPGKERELVAAISGRGGSTYYADSVKGRFTISRDNAKNTVYLQMNSLKPEDTAVYYCNKVYWRRGSLEYWGQGTQVTVSS”, which “polyreactivity (PSR sort gate)” value is on record?
Answer: high polyreactivity

Question: For “QVQIVESGGGLVQAGGSLRLSCAASGSTSWSNAMGWYRQAPRKERELVAAITTGASTYYADSVKGRFTISRDNSKNTVYLQMNSLKLEDTAVYYCAADPWVLWSYYYWGQGTQVTVSS”, which “polyreactivity (PSR sort gate)” value is on record?
Answer: low polyreactivity

Question: For “QVQIVESGGGLVQAGGSLRLSCAASGSTYDTYAMVWYRQAPGKERELVAGITRRGGRTYYADSVKGRFTISRDNAKNTVYLQMISLKPEDTAVYYCAARTYGYYLYDYWGQGSQVTVSS”, which “polyreactivity (PSR sort gate)” value is on record?
Answer: high polyreactivity

Question: For “QVQIVESGGGLVQAGGSLRLSCAASGTFSFYAMGWYRQAPGKERELVATIRSGGRTYYADSVKGRFTISRDNAKNTVYLQMNSLKPEDTAVYYCAKTGFLGLRQYGYWGQGTQVTVSS”, which “polyreactivity (PSR sort gate)” value is on record?
Answer: high polyreactivity

Question: Which “polyreactivity (PSR sort gate)” value does the source give for “QVQIVESGGGLVQAGGSLRLSCAASGTFTYYAMGWYRQAPGKERELVAAITWRGGNTYYADSVKGRFTISRDNAKNTVYLQKNSLKPEDTEVYYCAASLWPDYEYDYWGQGTQVTVSS” here?
Answer: low polyreactivity

Question: For “QVQIVESGGGLVQAGGSLRLSCAASGTTFDKYAMGWYRQAPGKERELVAAITTNGGNTYADSVKGRFTISRDNAKNTVYLQMNSLKPEDTAVYYCAADGPGGKGLYYYWGQGTQVTVSS”, which “polyreactivity (PSR sort gate)” value is on record?
Answer: high polyreactivity

Question: With “QVQIVESGGGLVQAGGSLRLSCAASRIIFSTYAMGWYRQAPGKEREFVAAITSTGSTNYADSVKGRFTISRDNEKNTVYLQMNSLKPEDTAVYYCAARYAGPSPTDTGHDYWGQGTQVTVSS” as the sequence, how does the “polyreactivity (PSR sort gate)” value read?
Answer: low polyreactivity

Question: For “QVQIVESGGGLVQAGGSLRLSCADSGFISSHYAMGWYRQAPGKERELVAAISTNGGSTYYADSVKGRFTISRDNAKNTVYLQMNSLKPEDTSVYYCAAEFAVSFYWSWLGQDYNYWGQGTQVTVSS”, which “polyreactivity (PSR sort gate)” value is on record?
Answer: high polyreactivity

Question: With “QVQIVESGGGLVQAGGSLRLSCAPSGSTFWLYAMGWYRHAPGKERELVASISSRGGSTYYADSVTGRFTISRDNAKNTVYLQMNSLKPEDTAVYYCAAKDIRYDDEYWGQGTQVTVSS” as the sequence, how does the “polyreactivity (PSR sort gate)” value read?
Answer: low polyreactivity

Question: For “QVQIVESGGGLVQAGGSLRLSCASSGRIFNTNAMGWYRQAPGKERELVAGITDSGDSTYYADSVKGRFTISRDNAKNTVYLQMNSLKPQDSAVYFCATDPASPYIYYYWGQGTQVTVSS”, which “polyreactivity (PSR sort gate)” value is on record?
Answer: low polyreactivity

Question: Which “polyreactivity (PSR sort gate)” value does the source give for “QVQIVESGGGLVQAGGSLRLSCASYGFTFWGYTMGWYRQAPGKERELVAAITSNGSTYYADSVKGRFTISRDNAQNTVYLQMNSLKPEDTAVYYCAATRGSSEYFYWGQGSQVTVSS” here?
Answer: low polyreactivity

Question: Which “polyreactivity (PSR sort gate)” value does the source give for “QVQIVESGGGLVQAGGSLRLSFAASGRTFGVYAMGWYRQAPGKERELVAAISATGGSTYYADSVKGRFTISRDNSKNTVYLQMNSLKPEDTAVYYCARGGTTLYWGLGTQVTVSS” here?
Answer: high polyreactivity

Question: With “QVQIVESGGGLVQAGGSLRLSGAASGRTFRPYTMGWYRPAPGKERELVARITSGGSTNYADSVKWRFTISRDNAKITVYLQMNSLKPEDTAVYYCNKPGYRLRLDDDYWGQGTQVTVSS” as the sequence, how does the “polyreactivity (PSR sort gate)” value read?
Answer: low polyreactivity

Question: Which “polyreactivity (PSR sort gate)” value does the source give for “QVQIVESGGGLVQAGGSLRLSSAASGNIFVYYAMGGYRQAPGKERELVAALTSDVSTYYADSVKGRFTISRDNAKNTVYLQMNSLKPEDTAVYYCNKVTPGRYYYSVTTGDYWGQGTKVTVSS” here?
Answer: low polyreactivity

Question: Which “polyreactivity (PSR sort gate)” value does the source give for “QVQIVESGGGLVQAGGSLRLSSPASGRTLPSYAMGWYRQAPGKERELVAAITRSGGRTYYADSVKGRFTISRDNAKYTVYLQMNSLKPEDTAVYDCAARQDDYGKIYYYWGQGSQVTVSS” here?
Answer: high polyreactivity

Question: For “QVQIVESGGGLVQAGGSLRLTCAASGFTFYKKAMGWYIQAPGKERELVAAITSSGGSTYYADSVKGRFTISRDNAKNTVYLQMNSLKPEDTAVYYCAAYPQAYIADYDYWGQGTQVTVSS”, which “polyreactivity (PSR sort gate)” value is on record?
Answer: low polyreactivity

Question: With “QVQIVESGGGLVQAGGSLRLTCAASGSIFDVYTMGWYRQAPGKERELVAAISYSGGRTNYADSVKGRFTISRDNAKNTVYLQIYSLKPEDTAVYYCATTDGRTAWGVKDYYAKYNYWGQGTQVTVSS” as the sequence, how does the “polyreactivity (PSR sort gate)” value read?
Answer: low polyreactivity

Question: With “QVQIVESGGGLVQAGGTLRLSCAASGFIFSSYGMGWYRKAPGKERELVADISGGGSTNYADSVKGRFTISRDNAKNSVYLQMNSLKPEETAVYYCNAQLIRSAAYDYWGQGTQVSVSS” as the sequence, how does the “polyreactivity (PSR sort gate)” value read?
Answer: low polyreactivity

Question: For “QVQIVESGGGLVQAGRSLRLSCAASGSTFGSYAMGWYRQAPGKDRELVAAISASGGSTYYADSVKGRFTISRDNAKHTVYLQMNSLKPEDTAVYYCATVYYSARYTYWGQGTQVTVSS”, which “polyreactivity (PSR sort gate)” value is on record?
Answer: high polyreactivity

Question: With “QVQIVESGGGLVQAGVSLRLSCAASGLTIGVYAMGWYRQAPGKERELVAAISWSGGTTYYADSVKGRFTISRDNAKINFYLQMNSLKPEDTAVYYCAADYYTDVDYWGQGNQVTVSS” as the sequence, how does the “polyreactivity (PSR sort gate)” value read?
Answer: low polyreactivity

Question: With “QVQIVESGGGLVQARGSIRFRCAASGRIIGTNTMGWYRQAPGKERELVAAITWSGGSTYYADSVKGRFTISRDKEKTTVYLQMYSLKPEDTAVYYCNVESEYAYHWPVDYWGQGTQVSVSS” as the sequence, how does the “polyreactivity (PSR sort gate)” value read?
Answer: low polyreactivity

Question: With “QVQIVESGGGLVQAVGSLRLSCAASGFTFTYNAMGWYRQAPGKERELVAAISSGGRTYYADSVKGRFTISRDNAKNTVYLQMNSLKPEDTAVYYCNADPDQYTLRSITNDEDYWGQGTQVTVSS” as the sequence, how does the “polyreactivity (PSR sort gate)” value read?
Answer: low polyreactivity

Question: Which “polyreactivity (PSR sort gate)” value does the source give for “QVQIVESGGGLVQPGGSLRLSCAASGRIFGRNAMGWYRQAPGKEWELVAAITTSASRTYYADSVKGRFTISRDNAKNTVYLQMNSLKPEDTAVYYCAARPSWYWYKGDYWGQGTQVTVSS” here?
Answer: high polyreactivity

Question: For “QVQIVESGGLLVQAGGSLRLSCAASGFIFNPNAMGWYRQAPGKERELVAAIRWSGGSTYYADSVQGRFTISRDNEKNTVYLQMNSLKPDDTAVYYCAANPRTTRYGRGYWGQGTQVSVSS”, which “polyreactivity (PSR sort gate)” value is on record?
Answer: high polyreactivity

Question: For “QVQIVESGGRLVQAGGSLRLSCAASGSIFVWYAMGWYRQAPGKERELVSRITSGGRTNYADSVKGRFTISRDNAKNTVYLQMNSLKPEDTAVYYCAAGRVSWSPYYYWGQATQVTVSS”, which “polyreactivity (PSR sort gate)” value is on record?
Answer: high polyreactivity

Question: With “QVQIVESGRGLVQAGGSLRLTCAASGINFHFNDMGWYRQAPRKQRELVAAIDSTGSTNYADSVKGRFTISRDNAKNTVYLQMNSLKPEDTAVYYCAVLNHRVDSVLTRYYYWGQGTQVTVSS” as the sequence, how does the “polyreactivity (PSR sort gate)” value read?
Answer: low polyreactivity

Question: With “QVQIVESRGGLVQAGGSLRLSCAASGSTIPYYAMGRYRQAPGKERELVARIRWNGDSTYYADSVKGRFTISRDIAKNTVYLQINSLKPEDTAVYYCARQGYTLYRTRNRYDYWGKGTQVTVSS” as the sequence, how does the “polyreactivity (PSR sort gate)” value read?
Answer: high polyreactivity
